Test results as given in the nanobody polyreactivity screen of Harvey et al. (2022).

Test: yeast display, Sf9 membrane polyspecificity reagent, FACS + sequencing; frameworks hold sequencing errors
Summary of the method: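 A nanobody's polyreactivity label depends on the gate it was sorted from. Yeast display cells were stained with 10% biotinylated, detergent-solubilized Sf9 membrane reagent for 1 hour at 4 °C, enriched on streptavidin microbeads and sorted by FACS. The low and high (top ~1%) gates were set on anti-HA fluorescence for expression and streptavidin fluorescence for reagent binding.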

Sequence	polyreactivity (PSR sort gate)
QDQLVESGGGLVQAGGSLRLSCAASGFTFGTYAMGWYRQAPGKERELVAAISARGGSTYYADSVKGRFTISRDNAKNTVYLQMNSLKPEDTAVYYCAAYYGRHVTPPTGYDYWGQGTQVTVSS	high polyreactivity
QDQLVESGGGLVQAGGSLRLSCAASGFTFGWYAMGWYRQAPGKERELVAAITSRGGSTYYPDSVKGRFTISRDNAKNTVYLQMNSLKPEDTAVYYCAALYGWSGYDYWGQGTQVTVSS	high polyreactivity
QDQLVESGGGLVQAGGSLRLSCAASGFTFHNNVMGWYRQAPGKERELVATISKSGGSTYYADSVKGRITISRDNAKNTVYLQMNSLKPEDTAVYYCARRYRDYGRYGYWGQGTQVTVSS	high polyreactivity
QDQLVESGGGLVQAGGSLRLSCAASGFTFRAYTMGWYRQAPGKERELVAAITYSGGRTYYADSVKGRFTISRDNAKKTVNLQMNSLNPEDTAVYYCAKRGWALSEYDYWGQGTQVTVSS	high polyreactivity
QDQLVESGGGLVQAGGSLRLSCAASGFTFTWNAMGWYRQAPGKERELVAGITRGGSTNYADSVKGRFTISRDNAKNTVYLQMNSLKPEDTAVYYCNVSFYFHHAGYDYWGQGTQVTVSS	low polyreactivity
QDQLVESGGGLVQAGGSLRLSCAASGFTFYSYAMGWYRQAPGKEREFVATITSSGGSTYYADSVKGRFTISRDTAKNTVYLQINSLNTEDTAVYYCAKDRYLYYRRRGQYDYWGQGTQVTVSS	high polyreactivity
QDQLVESGGGLVQAGGSLRLSCAASGFTFYTNVMGWYRQAPGKERELVAAINSGGSTNYADSVKGRFTISRDNAKNTVYLQMNSMKPEDTAVYYCNKSGTEIGYDYWGQGTQVTVLS	low polyreactivity
QDQLVESGGGLVQAGGSLRLSCAASGFTLSINAMGWYRQAPGKERELVAGISWSGGSTYYADSVKGRFTISRDNAKNTVYLQMNSLKPEDTAVYYCNADIYPDRYGSTNYDFNYWGQGTQVTVSS	low polyreactivity
QDQLVESGGGLVQAGGSLRLSCAASGHIFPYNAMGWYRQAPGKEREIVAASSFRGGSTYYADSVKGRFTISRDNAKNTVYLQMNSLKPEDTAVDYCAKRSYPWGQGTQVTVSS	low polyreactivity
QDQLVESGGGLVQAGGSLRLSCAASGIIFDVYAMGWYRPAPWNERELVAGITIGDITYYADSVKGRFTISRDNAKNTVYLQMNSLKPEDTAVYYCAADSYYYQTAYDYWGQGTQVTVSS	low polyreactivity
QDQLVESGGGLVQAGGSLRLSCAASGIIFGAYAMGWYRQAPGKERELVAAISQSGGSTYYADSVKGRFTISRDNAKITVYLQMNSLKPEDTAVYYCNVDPDVILVTSYDYWGQGTQVTVSS	low polyreactivity
QDQLVESGGGLVQAGGSLRLSCAASGIIFKYYAMGWYRQAPGKERELVAAITSGGSTNYADSVKGRFTISRDNAKNTVYLQMNSLKPEDTAVYYCAKRFYYRNRFDYWGHGTQVTVSS	low polyreactivity
QDQLVESGGGLVQAGGSLRLSCAASGIIYLTYAMGRYRQEPGKERELVATITSGGRTIYADSVKGRFTISLDNAKNTVYLQMNRLKPVDTAVYYCNALRYYHYDYWGQGTQVTVSS	high polyreactivity
QDQLVESGGGLVQAGGSLRLSCAASGINLSAYAMGWYRQAPGKERELVARISRSGGRTYYADSVKGRFTISRDNAKNTVYLQRNSLKQDDTAVYYCAADYTYGFGLYFGFGYWGQGTKVTVSS	high polyreactivity
QDQLVESGGGLVQAGGSLRLSCAASGITFYRYAMGWYRQAPGKERDLVAAITTSDTSTYYADSVKGRFTISRDNAKNTVYLQMNSLKPEDTAVYYCATDVVNIAPAEYDYWGQGTQVTVSS	low polyreactivity
QDQLVESGGGLVQAGGSLRLSCAASGITSSMNSMGWYRQAPGKERELVAAISWRGGSTYYADSVKGRFTISRDNAKNTVYLQLNSLKPEDTAVYYCAVRGKFDYWGQGTQVTVSS	high polyreactivity
QDQLVESGGGLVQAGGSLRLSCAASGLIFDSYAMGWYRQAPGKERELVAAITYTGGSTYYADSVKGRFTISRDNAKNTVYLQMNSLKPEDTAVYYCAADSPGPWRYDYWGQGTQVTVSS	high polyreactivity
QDQLVESGGGLVQAGGSLRLSCAASGLIFGYYAMGWYRQAPGKERELVAVISYSGGSTYYADSVKGRYTISRDNAKNTVYFQMNSMKPEDTAVYYCNTYRAYYRHTKEYGYWGQGTLVTVSS	high polyreactivity
QDQLVESGGGLVQAGGSLRLSCAASGLIFYGYVMGWYRQAPGKERELVAGISRNSGSTYYADSVKGRFTISRDNAKNTVYLQMNSLKPEDTAVYYCAALKFEAWAGEDYWGQGTQVTVSS	low polyreactivity
QDQLVESGGGLVQAGGSLRLSCAASGLTFAIYAMGCYRPAPGKERELVAGITWNTGRTYYADSVKGRFTISRDNAKNTVYLQMNSLNPEDTAVYYFAGRFVSRSVRGEATKYDYWGQGTQVTVSS	high polyreactivity
QDQLVESGGGLVQAGGSLRLSCAASGNNFFPYAMGWYRQAPGTEREFVAAINWSGGSTYYADSVKGRFTISRDNAKNTVYLQMNSLKPEDTAVYYCAASSGKWGHGYWGQGTQVTVSS	high polyreactivity
QDQLVESGGGLVQAGGSLRLSCAASGNTFNRYAKGWYRQAPGQERELVAAITSDGSTNYADSVKGRFTISRDNAKNTVYIQKNSMKPEDTAVYYCAAEHSGYPVAFYITGYGYDYCGQGTQVTVSS	low polyreactivity

Sequence	polyreactivity (PSR sort gate)
QDQLVESGGGLVQAGGSLRLSCAASGNTFYVNVMGWYRQPPGKVREFVAAISTRGVSTSYADSVKGRFTISRDIAMNTVYLQMNSLKPEDTAVYYCAASFRRPEPKGTTYGYWGQGTQVTVSS	high polyreactivity
QDQLVESGGGLVQAGGSLRLSCAASGNTYLNAMGWYRQAPAKEREMVAAISKGGADTYYADSVKGRFTISRDNAKYTVYLQMNSLKPEDTAVYYCNADYWFRFGSSVDQVTEDYWGQGTQVTVSS	low polyreactivity
QDQLVESGGGLVQAGGSLRLSCAASGPIFLVKTMGCYIQAPGKERELVADITWRGGDTYYADSVKGRFTISRDNAKNTDYLQMNSLKPEDTAVYYCAARGLGYGYERYRLGYWGQGTQVTVSS	high polyreactivity
QDQLVESGGGLVQAGGSLRLSCAASGRIFAPNAMGWYRQAPGKERELVAAITYSGTSTYADSVKGRFTISRDNAKNTVYLQMNSLKPEDTAVYYCAAEGSGVYYHSYDYWGQGTQVTVSS	low polyreactivity
QDQLVESGGGLVQAGGSLRLSCAASGRIFKSYAMGWYRQAHGKERELVAAISSSGGSTYYADSVKGRFTISRDNAKNTVYLQMNSLKPEDTAVYYCAAYGHYSWSYDYWGQGTQVTVSS	high polyreactivity
QDQLVESGGGLVQAGGSLRLSCAASGRIFKYKAMGRYRQAPGKERELVAAIRRSGGSTYYADSVKGRFTISRDYAKNTVYLQMNSLKPEDTAVYFCNRLYGPGFKSVYGYDYWGQGTQVTVSS	high polyreactivity
QDQLVESGGGLVQAGGSLRLSCAASGRIFPGNAMGWYIHEPGKERELVADITSGGSTNYADSVNGRFTISRDNAKNSVYLQMNSLKPEDTAVYYCAVGQIYQTSDHRLQYVYWGQGTQVTVSS	low polyreactivity
QDQLVESGGGLVQAGGSLRLSCAASGRIFPWYTMGWYRQAPGKERELVAVISSGGRTHYADSVKGRFTISRDNAKNTVYLLMNSLKPEDTAVYYCAAESRYQRYDYWGQGTKVTVSS	high polyreactivity
QDQLVESGGGLVQAGGSLRLSCAASGRIFRRNTQGWSRQAPGKERELVAAITSSGGSTFADSVKGRFTISRDNAKNTVYLQMNSLKPEDTAVYYCATYVAYHRGYRTYDHWGQGTQVTVSS	low polyreactivity
QDQLVESGGGLVQAGGSLRLSCAASGRIFSKYAKGWYRQAPGKERELVAAITTGGGSTSYADSVKGRFTISRDNAKITVYLQMNSLKPEDTAVYYCAADRLSYGFGMYYWGQGTQVTVSS	low polyreactivity
QDQLVESGGGLVQAGGSLRLSCAASGRIFYRYAMGWYRQAPGKERELVATISRSGGSTNYADSVKGRFTISRDNAKKTVYLQLNSLKPEDTAVYYCAAQYTYRFPYPGYATTHDYWGQGTQVTVSS	high polyreactivity
QDQLVESGGGLVQAGGSLRLSCAASGRIIRAYAMGWYRQAPGKERELVAAISGGSNTNYADSVKGRFTISRDNAKNTVYLQMNSLKPEDTAVYYCAADAGYWESLWYPYGFYWGQGTQVTVSS	low polyreactivity
QDQLVESGGGLVQAGGSLRLSCAASGRILRRNVMGWYRQAPGKESELVATITNSGGRTYYADSVKGRFTISRDNEKNTVYLLMNSLQPEDTAVYYCAKYGYGYTGYGYWGQGTQVTVSS	high polyreactivity
QDQLVESGGGLVQAGGSLRLSCAASGRISTYTMGWYRQAPGKERELVATISTDASTNYADSVKGRFTISRDNAKNTVYLQMNSLRPEDTAVYYCAAVIVNQDYDYWGQGTQVTVSS	low polyreactivity
QDQLVESGGGLVQAGGSLRLSCAASGRNFRYYTMGWYRQAPGKERELVAAITRRGGITNYADSVKGRFTISRDNGKNTVYLQMNSLKPEDTAVYYCAAKYVSQCYDYWGQGTQVTVSS	high polyreactivity
QDQLVESGGGLVQAGGSLRLSCAASGRNFSYYAMGWYRQAPGKERELVAAIRWSGGRTYYADSVKGRFTISRDNAKNTVYLQMNSLKPEDTAVYYCAAEGAYRLAYDSWGQGTQVTVSS	high polyreactivity
QDQLVESGGGLVQAGGSLRLSCAASGRTFAAYAMGWYRQAPGKERELVATIRRGGTTDYADSVKGRFTISRDNAKNTVYLQMNSLKPEDTAVYYCNARSRTYRTRRYDYWGQGTQVTVSS	high polyreactivity
QDQLVESGGGLVQAGGSLRLSCAASGRTFAYNAMVWYRQAPGKERELVADITSGGSTYYADSVKGRFTISRDNPKNTVNLQMNSLKPEDTAVYDCADVRQGSFTTMDYWGQGTQVTVSS	high polyreactivity
QDQLVESGGGLVQAGGSLRLSCAASGRTFFGYAMGWYRQAPGKERELVAAITTSGGSTYYADSVKGRFTISRDNAKNTVYLQMNSLKPEDTAVYYCAARAYYGYYYWGQGTQVTVSS	low polyreactivity
QDQLVESGGGLVQAGGSLRLSCAASGRTFIRNAMGWYRPAPGKERELVAAISRSGGRTYYADSVKGRFTISRDNAKNTVYLQMNSLKPEDTAVYYCAAGSYQRYAFDYWGQGTQVTVSS	high polyreactivity
QDQLVESGGGLVQAGGSLRLSCAASGRTFIRNSMGWNRQAPGKERELVAAISGTGGSTYYADSVKGRFTISRDYAKNTVYLQMNSLKPEDTAVYYCAADRPAPGYDFWGQVTQVTVSS	low polyreactivity
